{
  "source": "patent US20180335435A1",
  "about": "(METAFORA BIOSYSTEMS, published 2018)",
  "target": "T1, human CAT1 (cationic amino acid transporter-1, SLC7A1) (human, UniProt P30825 1-629)",
  "T1 construct": "Endogenous on HEK293T cells or expressed from a human CAT1 vector in QT6, HEK293T or CHO cells; also called CAT1/SLC7A1; Hu-CAT1",
  "T1 sequence (P30825 whole entry, the tested form may be a part)": "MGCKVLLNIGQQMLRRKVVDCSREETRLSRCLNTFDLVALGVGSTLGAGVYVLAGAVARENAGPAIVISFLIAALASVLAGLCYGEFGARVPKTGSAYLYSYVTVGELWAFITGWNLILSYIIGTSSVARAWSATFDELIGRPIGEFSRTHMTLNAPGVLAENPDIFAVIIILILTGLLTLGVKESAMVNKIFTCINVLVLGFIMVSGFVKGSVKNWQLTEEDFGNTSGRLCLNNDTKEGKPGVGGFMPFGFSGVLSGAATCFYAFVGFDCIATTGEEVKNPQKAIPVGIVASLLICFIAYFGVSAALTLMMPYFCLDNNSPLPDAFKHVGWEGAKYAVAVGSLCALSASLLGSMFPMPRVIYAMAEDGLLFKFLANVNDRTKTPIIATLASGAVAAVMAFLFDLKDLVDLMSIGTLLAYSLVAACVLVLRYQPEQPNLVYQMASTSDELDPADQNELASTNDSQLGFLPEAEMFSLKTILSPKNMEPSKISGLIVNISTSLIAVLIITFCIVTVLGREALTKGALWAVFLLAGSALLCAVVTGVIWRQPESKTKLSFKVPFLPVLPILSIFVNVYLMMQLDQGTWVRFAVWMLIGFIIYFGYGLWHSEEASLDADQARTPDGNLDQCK",
  "experiment": "flow cytometry on HEK293T cells transfected with siRNA to CAT1 (n=3)",
  "data": [
    {"binder": "BLV.RBD-mFc ligand (receptor-binding domain of the bovine leukemia virus envelope glycoprotein tagged in frame with the constant fragment of mouse … (Fc fusion, Used as a 1/10 dilution, detected with anti-mouse IgG1-Alexa Fluor 488; also called BLV.RBD ligand; BLV.RBD tagged with mouse Fc (mFc)) WRCSLSLGNQQWMTTYNQEAKFFISIDQILEAHNQSPFCPRSPRYTLDFVNGYPKIYWPPPQGRRRFGARAMVTYDCEPRCPYVGADHFDCPHWDNASQADQGSFYVNHQTLFLHLKQCHGIFTLTWEIWGYDPLITFSLHKIPAPPQGSVDVPRDCGCKPCICTVPEVSSVFIFPPKPKDVLTITLTPKVTCVVVDISKDDPEVQFSWFVDDVEVHTAQTQPREEQFNSTFRSVSELPIMHQDWLNGKEFKCRVNSAAFPAPIEKTISKTKGRPKAPQVYTIPPPKEQMAKDKVSLTCMITDFFPEDITVEWQWNGQPAENYKNTQPIMDTDGSYFVYSKLNVQKSNWEAGNTFTCSVLHEGLHNHHTEKSLSHSPGK", "values": [
      {"measurement": "fold decrease of binding after siRNA against CAT1 mRNA", "value": 3.5, "unit": "fold"}
    ]}
  ]
}
